# Results as given in publication PMC10033314.
# Where two headings read alike, the source gives them in different places.
# Columns and labels:
# [1] = target: Quenched-fluorescent peptide substrate fluorescein-5(6)-carbonyl-Ala-Glu-Leu-Asn-Gly-Arg-Pro-Ile-Ser-Ile-Ala-Lys(5(6)-TAMRA)
# [2] = target: Versican V1-5GAG (truncated V1, residues 21-694) (UniProt P13611)
# ADAMTS1 (Homo sapiens) = ADAMTS1 (Homo sapiens) (UniProt Q9UHI8); conditions: cited from earlier work
# [3] = target: Versican G3 (Homo sapiens) (UniProt P13611); conditions: cited from earlier work
# [4] = target: Versican V1-5GAG (truncated V1, residues 21-694) (UniProt P13611); remark: listed apart in the source
molecule,measurement,setting,value
ADAMTS1 variant MD (truncated after the disintegrin-like domain) (domain or fragment),kcat/Km for proteolysis of the QF peptide,[1],6100 M⁻¹ s⁻¹
same,"kcat/Km for cleavage of V1-5GAG (50 nM), time course with versikine ELISA",[2],61 M⁻¹ s⁻¹
ADAMTS1 variant MDT (truncated after the central TSR motif) (domain or fragment),kcat/Km for proteolysis of the QF peptide,[1],6200 M⁻¹ s⁻¹
same,"kcat/Km for cleavage of V1-5GAG (50 nM), time course with versikine ELISA",[2],66 M⁻¹ s⁻¹
ADAMTS1 variant MDTCS (truncated after the spacer domain) (domain or fragment),kcat/Km for proteolysis of the QF peptide,[1],7600 M⁻¹ s⁻¹
same,"kcat/Km for cleavage of V1-5GAG (50 nM), time course with versikine ELISA",[2],7300 M⁻¹ s⁻¹
Fibulin-1 (from UniProt P23142),Kd,ADAMTS1 (Homo sapiens),1000 nM
Fibulin-1 domain II (from UniProt P23142),Kd,[3],26 nM
ADAMTS1 variant 756-765/828-835 (β3-β4 and β9-β10 loops replaced by those of ADAMTS4) (enzyme) FVSSHRYVETMLVADQSMAEFHGSGLKHYLLTLFSVAARLYKHPSIRNSVSLVVVKILVIHDEQKGPEVTSNAALTLRNFCNWQKQHNPPSDRDAEHYDTAILFTRQDLCGSQTCDTLGMADVGTVCDPSRSCSVIEDDGLQAAFTTAHELGHVFNMPHDDAKQCASLNGVNQDSHMMASMLSNLDHSQPWSPCSAYMITSFLDNGHGECLMDKPQNPIQLPGDLPGTSYDANRQCQFTFGEDSKHCPDAASTCSTLWCTGTSGGVLVCQTKHFPWADGTSCGEGKWCINGKCVNKTDRKHFDTPFHGSWGMWGPWGDCSRTCGGGVQYTMRECDNPVPKNGGKYCEGKRVRYRSCNLEDCPDNNGKTFREEQCEAHNEFSKASFGSGPAVEWIPKYAGVSPKDRCKLICQAKGIGYFFVLQPKVVDGTPCSPDSTSVCVQGQCVKAGCDRIIDSKKKFDKCGVCGGNGSTCKKISGSVTSAKPGYHDIITIPTGATNIEVKQQGNPGHRSSFLAIKAADGTYILNGDYTLSTLEQDIMYKGVVLRYSGSSAALERIRSFSPLKEPLTIQVLTAGNPQDTRIKYTYFVKKKKESFNAIPTFSAWVIEEWGECSKSCELGWQRRLVECRDINGQPASECAKEVKPASTRPCADHPCPQWQLGEWSSCSKTCGKGYKKRSLKCLSHDGGVLSHESCDPLKKPKHFIDFCTMAECS,"kcat/Km for cleavage of V1-5GAG (50 nM), time course with versikine ELISA",[4],460 M⁻¹ s⁻¹
ADAMTS1 K735Q (β1-β2 loop of the spacer domain) (enzyme) FVSSHRYVETMLVADQSMAEFHGSGLKHYLLTLFSVAARLYKHPSIRNSVSLVVVKILVIHDEQKGPEVTSNAALTLRNFCNWQKQHNPPSDRDAEHYDTAILFTRQDLCGSQTCDTLGMADVGTVCDPSRSCSVIEDDGLQAAFTTAHELGHVFNMPHDDAKQCASLNGVNQDSHMMASMLSNLDHSQPWSPCSAYMITSFLDNGHGECLMDKPQNPIQLPGDLPGTSYDANRQCQFTFGEDSKHCPDAASTCSTLWCTGTSGGVLVCQTKHFPWADGTSCGEGKWCINGKCVNKTDRKHFDTPFHGSWGMWGPWGDCSRTCGGGVQYTMRECDNPVPKNGGKYCEGKRVRYRSCNLEDCPDNNGKTFREEQCEAHNEFSKASFGSGPAVEWIPKYAGVSPKDRCKLICQAKGIGYFFVLQPKVVDGTPCSPDSTSVCVQGQCVKAGCDRIIDSKKKFDKCGVCGGNGSTCKKISGSVTSAQPGYHDIITIPTGATNIEVKQRNQRGSRNNGSFLAIKAADGTYILNGDYTLSTLEQDIMYKGVVLRYSGSSAALERIRSFSPLKEPLTIQVLTVGNALRPKIKYTYFVKKKKESFNAIPTFSAWVIEEWGECSKSCELGWQRRLVECRDINGQPASECAKEVKPASTRPCADHPCPQWQLGEWSSCSKTCGKGYKKRSLKCLSHDGGVLSHESCDPLKKPKHFIDFCTMAECS,"kcat/Km for cleavage of V1-5GAG (50 nM), time course with versikine ELISA",[4],4800 M⁻¹ s⁻¹
ADAMTS1 K795Q (β6-β7 loop of the spacer domain) (enzyme) FVSSHRYVETMLVADQSMAEFHGSGLKHYLLTLFSVAARLYKHPSIRNSVSLVVVKILVIHDEQKGPEVTSNAALTLRNFCNWQKQHNPPSDRDAEHYDTAILFTRQDLCGSQTCDTLGMADVGTVCDPSRSCSVIEDDGLQAAFTTAHELGHVFNMPHDDAKQCASLNGVNQDSHMMASMLSNLDHSQPWSPCSAYMITSFLDNGHGECLMDKPQNPIQLPGDLPGTSYDANRQCQFTFGEDSKHCPDAASTCSTLWCTGTSGGVLVCQTKHFPWADGTSCGEGKWCINGKCVNKTDRKHFDTPFHGSWGMWGPWGDCSRTCGGGVQYTMRECDNPVPKNGGKYCEGKRVRYRSCNLEDCPDNNGKTFREEQCEAHNEFSKASFGSGPAVEWIPKYAGVSPKDRCKLICQAKGIGYFFVLQPKVVDGTPCSPDSTSVCVQGQCVKAGCDRIIDSKKKFDKCGVCGGNGSTCKKISGSVTSAKPGYHDIITIPTGATNIEVKQRNQRGSRNNGSFLAIKAADGTYILNGDYTLSTLEQDIMYQGVVLRYSGSSAALERIRSFSPLKEPLTIQVLTVGNALRPKIKYTYFVKKKKESFNAIPTFSAWVIEEWGECSKSCELGWQRRLVECRDINGQPASECAKEVKPASTRPCADHPCPQWQLGEWSSCSKTCGKGYKKRSLKCLSHDGGVLSHESCDPLKKPKHFIDFCTMAECS,"kcat/Km for cleavage of V1-5GAG (50 nM), time course with versikine ELISA",[4],730 M⁻¹ s⁻¹
ADAMTS1 K818Q (β8-β9 loop of the spacer domain) (enzyme) FVSSHRYVETMLVADQSMAEFHGSGLKHYLLTLFSVAARLYKHPSIRNSVSLVVVKILVIHDEQKGPEVTSNAALTLRNFCNWQKQHNPPSDRDAEHYDTAILFTRQDLCGSQTCDTLGMADVGTVCDPSRSCSVIEDDGLQAAFTTAHELGHVFNMPHDDAKQCASLNGVNQDSHMMASMLSNLDHSQPWSPCSAYMITSFLDNGHGECLMDKPQNPIQLPGDLPGTSYDANRQCQFTFGEDSKHCPDAASTCSTLWCTGTSGGVLVCQTKHFPWADGTSCGEGKWCINGKCVNKTDRKHFDTPFHGSWGMWGPWGDCSRTCGGGVQYTMRECDNPVPKNGGKYCEGKRVRYRSCNLEDCPDNNGKTFREEQCEAHNEFSKASFGSGPAVEWIPKYAGVSPKDRCKLICQAKGIGYFFVLQPKVVDGTPCSPDSTSVCVQGQCVKAGCDRIIDSKKKFDKCGVCGGNGSTCKKISGSVTSAKPGYHDIITIPTGATNIEVKQRNQRGSRNNGSFLAIKAADGTYILNGDYTLSTLEQDIMYKGVVLRYSGSSAALERIRSFSPLQEPLTIQVLTVGNALRPKIKYTYFVKKKKESFNAIPTFSAWVIEEWGECSKSCELGWQRRLVECRDINGQPASECAKEVKPASTRPCADHPCPQWQLGEWSSCSKTCGKGYKKRSLKCLSHDGGVLSHESCDPLKKPKHFIDFCTMAECS,"kcat/Km for cleavage of V1-5GAG (50 nM), time course with versikine ELISA",[4],6050 M⁻¹ s⁻¹
ADAMTS1 K735Q/K795Q (β1-β2 and β6-β7 loops of the spacer domain) (enzyme) FVSSHRYVETMLVADQSMAEFHGSGLKHYLLTLFSVAARLYKHPSIRNSVSLVVVKILVIHDEQKGPEVTSNAALTLRNFCNWQKQHNPPSDRDAEHYDTAILFTRQDLCGSQTCDTLGMADVGTVCDPSRSCSVIEDDGLQAAFTTAHELGHVFNMPHDDAKQCASLNGVNQDSHMMASMLSNLDHSQPWSPCSAYMITSFLDNGHGECLMDKPQNPIQLPGDLPGTSYDANRQCQFTFGEDSKHCPDAASTCSTLWCTGTSGGVLVCQTKHFPWADGTSCGEGKWCINGKCVNKTDRKHFDTPFHGSWGMWGPWGDCSRTCGGGVQYTMRECDNPVPKNGGKYCEGKRVRYRSCNLEDCPDNNGKTFREEQCEAHNEFSKASFGSGPAVEWIPKYAGVSPKDRCKLICQAKGIGYFFVLQPKVVDGTPCSPDSTSVCVQGQCVKAGCDRIIDSKKKFDKCGVCGGNGSTCKKISGSVTSAQPGYHDIITIPTGATNIEVKQRNQRGSRNNGSFLAIKAADGTYILNGDYTLSTLEQDIMYQGVVLRYSGSSAALERIRSFSPLKEPLTIQVLTVGNALRPKIKYTYFVKKKKESFNAIPTFSAWVIEEWGECSKSCELGWQRRLVECRDINGQPASECAKEVKPASTRPCADHPCPQWQLGEWSSCSKTCGKGYKKRSLKCLSHDGGVLSHESCDPLKKPKHFIDFCTMAECS,"kcat/Km for cleavage of V1-5GAG (50 nM), time course with versikine ELISA",[4],570 M⁻¹ s⁻¹
ADAMTS1 variant 828-835 (β9-β10 loop residues 828-835 replaced by ADAMTS4 residues 788-795) (enzyme) FVSSHRYVETMLVADQSMAEFHGSGLKHYLLTLFSVAARLYKHPSIRNSVSLVVVKILVIHDEQKGPEVTSNAALTLRNFCNWQKQHNPPSDRDAEHYDTAILFTRQDLCGSQTCDTLGMADVGTVCDPSRSCSVIEDDGLQAAFTTAHELGHVFNMPHDDAKQCASLNGVNQDSHMMASMLSNLDHSQPWSPCSAYMITSFLDNGHGECLMDKPQNPIQLPGDLPGTSYDANRQCQFTFGEDSKHCPDAASTCSTLWCTGTSGGVLVCQTKHFPWADGTSCGEGKWCINGKCVNKTDRKHFDTPFHGSWGMWGPWGDCSRTCGGGVQYTMRECDNPVPKNGGKYCEGKRVRYRSCNLEDCPDNNGKTFREEQCEAHNEFSKASFGSGPAVEWIPKYAGVSPKDRCKLICQAKGIGYFFVLQPKVVDGTPCSPDSTSVCVQGQCVKAGCDRIIDSKKKFDKCGVCGGNGSTCKKISGSVTSAKPGYHDIITIPTGATNIEVKQRNQRGSRNNGSFLAIKAADGTYILNGDYTLSTLEQDIMYKGVVLRYSGSSAALERIRSFSPLKEPLTIQVLTAGNPQDTRIKYTYFVKKKKESFNAIPTFSAWVIEEWGECSKSCELGWQRRLVECRDINGQPASECAKEVKPASTRPCADHPCPQWQLGEWSSCSKTCGKGYKKRSLKCLSHDGGVLSHESCDPLKKPKHFIDFCTMAECS,"kcat/Km for cleavage of V1-5GAG (50 nM), time course with versikine ELISA",[4],410 M⁻¹ s⁻¹
ADAMTS1 R756Q/R759Q/R762Q (β3-β4 loop of the spacer domain) (enzyme) FVSSHRYVETMLVADQSMAEFHGSGLKHYLLTLFSVAARLYKHPSIRNSVSLVVVKILVIHDEQKGPEVTSNAALTLRNFCNWQKQHNPPSDRDAEHYDTAILFTRQDLCGSQTCDTLGMADVGTVCDPSRSCSVIEDDGLQAAFTTAHELGHVFNMPHDDAKQCASLNGVNQDSHMMASMLSNLDHSQPWSPCSAYMITSFLDNGHGECLMDKPQNPIQLPGDLPGTSYDANRQCQFTFGEDSKHCPDAASTCSTLWCTGTSGGVLVCQTKHFPWADGTSCGEGKWCINGKCVNKTDRKHFDTPFHGSWGMWGPWGDCSRTCGGGVQYTMRECDNPVPKNGGKYCEGKRVRYRSCNLEDCPDNNGKTFREEQCEAHNEFSKASFGSGPAVEWIPKYAGVSPKDRCKLICQAKGIGYFFVLQPKVVDGTPCSPDSTSVCVQGQCVKAGCDRIIDSKKKFDKCGVCGGNGSTCKKISGSVTSAKPGYHDIITIPTGATNIEVKQQNQQGSQNNGSFLAIKAADGTYILNGDYTLSTLEQDIMYKGVVLRYSGSSAALERIRSFSPLKEPLTIQVLTVGNALRPKIKYTYFVKKKKESFNAIPTFSAWVIEEWGECSKSCELGWQRRLVECRDINGQPASECAKEVKPASTRPCADHPCPQWQLGEWSSCSKTCGKGYKKRSLKCLSHDGGVLSHESCDPLKKPKHFIDFCTMAECS,"kcat/Km for cleavage of V1-5GAG (50 nM), time course with versikine ELISA",[4],870 M⁻¹ s⁻¹
